Results taken from article PMC3413146 (Nucleic Acids Research, 2012).

Biological target: T1, RECQL4 (endogenous) (human (endogenous in HeLa), UniProt O94761 1-1208)
T1 sequence (looked up): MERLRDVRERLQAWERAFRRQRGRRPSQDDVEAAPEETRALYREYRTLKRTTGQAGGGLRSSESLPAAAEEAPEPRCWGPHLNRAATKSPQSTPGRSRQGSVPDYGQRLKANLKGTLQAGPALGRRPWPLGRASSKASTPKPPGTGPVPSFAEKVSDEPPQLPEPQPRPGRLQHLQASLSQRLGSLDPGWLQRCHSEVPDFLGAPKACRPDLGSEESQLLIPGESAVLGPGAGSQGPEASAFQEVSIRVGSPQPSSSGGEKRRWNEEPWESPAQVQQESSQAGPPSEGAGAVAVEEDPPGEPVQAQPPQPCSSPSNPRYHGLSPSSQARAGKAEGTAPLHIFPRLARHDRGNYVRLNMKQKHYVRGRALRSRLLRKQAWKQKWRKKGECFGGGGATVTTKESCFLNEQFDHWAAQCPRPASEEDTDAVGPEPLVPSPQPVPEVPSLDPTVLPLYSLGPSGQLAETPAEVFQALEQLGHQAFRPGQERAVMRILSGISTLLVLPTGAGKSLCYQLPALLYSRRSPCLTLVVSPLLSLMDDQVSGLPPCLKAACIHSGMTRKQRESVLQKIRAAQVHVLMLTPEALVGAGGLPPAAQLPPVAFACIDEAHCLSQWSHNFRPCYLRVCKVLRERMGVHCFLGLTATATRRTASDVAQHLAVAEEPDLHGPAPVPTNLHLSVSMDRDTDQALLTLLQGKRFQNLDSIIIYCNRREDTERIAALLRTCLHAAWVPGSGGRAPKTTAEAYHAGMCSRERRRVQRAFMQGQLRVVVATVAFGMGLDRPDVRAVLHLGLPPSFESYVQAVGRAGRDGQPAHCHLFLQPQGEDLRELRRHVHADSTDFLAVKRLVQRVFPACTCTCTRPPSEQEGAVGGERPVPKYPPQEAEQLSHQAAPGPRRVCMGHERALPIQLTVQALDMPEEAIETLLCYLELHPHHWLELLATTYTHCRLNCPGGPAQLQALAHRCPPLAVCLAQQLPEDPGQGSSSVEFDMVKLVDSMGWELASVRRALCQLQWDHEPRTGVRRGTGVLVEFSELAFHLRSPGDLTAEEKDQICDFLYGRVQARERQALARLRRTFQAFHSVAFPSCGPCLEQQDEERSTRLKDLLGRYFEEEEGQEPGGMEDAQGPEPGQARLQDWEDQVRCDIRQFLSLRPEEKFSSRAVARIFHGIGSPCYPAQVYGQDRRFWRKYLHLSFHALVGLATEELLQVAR
Test: co-IP

B1: BLM (endogenous) (natural protein)
chain: not shown
fold change of the co-immunoprecipitated BLM signal, S-phase against G0–G1 phase: ~5 fold
